Experimental data: patent publication US10472605B2, “Serum-free medium” (National University of Ireland, Galway, priority 2014, dated 2019)

B1: vitronectin: extra-cellular matrix attachment factor used to pre-coat flasks (protein, UniProt P04004 20-478, looked up)
Vitronectin: DQESCKGRCTEGFNVDKKCQCDELCSYYQSCCTDYTAECKPQVTRGDVFTMPEDEYTVYDDGEEKNNATVHEQVGGPSLTSDLQAQSKGNPEQTPVLKPEEEAPAPEVGASKPEGIDSRPETLHPGRPQPPAEEELCSGKPFDAFTDLKNGSLFAFRGQYCYELDEKAVRPGYPKLIRDVWGIEGPIDAAFTRINCQGKTYLFKGSQYWRFEDGVLDPDYPRNISDGFDGIPDNVDAALALPAHSYSGRERVYFFKGKQYWEYQFQHQPSQEECEGSSLSAVFEHFAMMQRDSWEDIFELLFWGRTSAGTRQPQFISRDWHGVPGQVDAAMAGRIYISGMAPRPSLAKKQRFRHRNRKGYRSQRGHSRGRNQNSRRPSRATWLSLFSSEESNLGANNYDDYRMDWLVPATCEPIQSVFFFSGDKYYRVNLRTRRVDTVDPPYPRSIAQYWLGCPAPGHL
B2: FGF4: fibroblast growth factor 4 (protein, UniProt P08620 31-206, looked up)
Fibroblast growth factor 4: APTAPNGTLEAELERRWESLVALSLARLPVAAQPKEAAVQSGAGDYLLGIKRLRRLYCNVGIGFHLQALPDGRIGGAHADTRDSLLELSPVERGVVSIFGVASRFFVAMSSKGKLYGSPFFTDECTFKEILLPNNYNAYESYKYPGMFIALSKNGKTKKGNRVSPTMKVTHFLPRL

How the values were obtained:
[1] = test system: MSC; assay: Attachment of MSC isolated in 10% FBS and re-attached under serum-free conditions; assay type: cell-based; settings: after 18 hours in a serum-free environment; vitronectin 0.5 μg/ml pre-coating
Source text: Tissue culture flasks were pre-coated with fibronectin (FN; black), hylauronic acid (HA; blue), vitronectin (VN; red) or laminin (LN; green) and cells were allowed to adhere in serum-free conditions. Controls include serum-free plating without the presence of an extra-cellular matrix (ECM) attachment factor and 10% FBS (grey). Results are representative of 3 biological replicates with n=2;
MSC were attached on tissue culture flasks in the presence of EGF (red) or on tissue culture plastic precoated with FN (purple) or in the presence of EGF on fibronectin coated plastic (green) and passaged every 3 days. Controls include serum free plating without the presence of an ECM attachment factor (blue) and 10% FBS (black). Results are representative of 3 biological replicates with n=2;
(§1) Proliferation of the MSC attached in the presence of basic fibroblast growth factor (bFGF2, FGF2) was also assessed after 6 days.

[2] = test system: MSC; assay: Growth/proliferation of MSC isolated in 10% FBS and re-attached under serum-free conditions; assay type: cell-based; settings: 5 ng/ml; over 3 passages, days 5, 10 and 15; fibronectin-coated
Procedure: Tissue culture flasks were pre-coated with FN (black), HA (blue), VN (red) or LN (green) and cells were allowed to adhere in serum-free conditions. Cell numbers were obtained after 5 days. Controls include serum-free plating without the presence of an ECM attachment factor and 10% FBS (grey). Results are representative of 3 biological replicates with n=2;
Cells were then cultured in the presence of growth factors and passaged every 5 days. Controls include serum free plating without growth factors and 10% FBS. Results are representative of 3 biological replicates with n=2;
Cells were then cultured in serum-free media containing FGF2 (5 ng/ml) in the presence of PGE2, cholesterol or lipoprotein for 5 days. Controls include serum free plating without growth factors 10% FBS (A). Cells were then cultured in the presence of lipoprotein and passaged every 5 days for 3 passages, controls include serum free plating without lipoprotein (B). Results are representative of 3 biological replicates with n=2;
as §1
Serum-free basal medium formulation was selected based on the literature describing low-serum cell culture of dental pulp stem cells (Tarle et al., 2010). […]

Row | Molecule | MSC attachment [1] | MSC proliferation in serum free medium [2]
1 | B1 | supported MSC attachment optimally | 
2 | B2 |  | increased MSC proliferation
